Measured values: PMC6192581 (2018)
Read-outs that look alike come from different tables or passages of the source.

Experiments:
[1] = target: T1, LDL (apolipoprotein B-100) (Homo sapiens, UniProt P04114)
[2] = target: T1, LDL (apolipoprotein B-100); remark: listed apart in the source

B1: LDL receptor 1-789 (protein)
chain: not shown
Kd [1]: 0.58 nM
Kd [2]: 7.01 nM
